Data taken from patent CN114349855A (BAISIS MEDICAL DIAGNOSIS SCIENCE AND TECH BEIJING LIMITED …, dated 2022).

Columns and labels:
Experiment in all cases: ELISA, S protein coated at 2 μg/mL
新型冠状病毒Alpha Spike蛋白 = molecular target: T1, 新型冠状病毒Alpha Spike蛋白 (新型冠状病毒 (SARS-CoV-2) Alpha突变株, UniProt P0DTC2 16-1213)
T1 construct: also called Alpha的S蛋白

新型冠状病毒Beta Spike蛋白 = molecular target: T2, 新型冠状病毒Beta Spike蛋白 (新型冠状病毒 (SARS-CoV-2) Beta突变株, UniProt P0DTC2 16-1213)
T2 construct: also called Beta的S蛋白

新型冠状病毒Gamma Spike蛋白 = molecular target: T3, 新型冠状病毒Gamma Spike蛋白 (新型冠状病毒 (SARS-CoV-2) Gamma突变株, UniProt P0DTC2 16-1213)
T3 construct: also called Gamma的S蛋白

Measured: binding result

B1: 抗体 克隆号9A5F6 23F1 (antibody, V domains shown)
VH: QVQLVESGGGVVQPGRSLRLSCAASGFTFSSYAMYWVRQAPGKGLECVAGISYDGSNKYYADSVKGRFTISRENSKNTLYLQMNSLISEDTAVYYCARAEWDYWGQGTLVTVSS
VL: SYELTQPSSVSVSPGQTARITCSGDVLAKKYARWFQQKPGQAPVLVIYKDSERPSGIPERFSGSSSGTTVTLTISGAQVEDEADYYCYSAADNNLGVFGGGTKL
no binding (tested: 1 μg/mL): 新型冠状病毒Alpha Spike蛋白 | 新型冠状病毒Beta Spike蛋白 | 新型冠状病毒Gamma Spike蛋白

B2: 抗体 克隆号7D7G3D4 (antibody, V domains shown)
VH: EVQLVESGGGLVQPGGSLRLSCAASGLTVSSNHMSWVRQAPGKGLEWVSIIYSGGSTYYADSVKGRFTISRDNSKNTLYLQMDSLRAEDTTVYYCARAQGGWELPGAGYYYFNGMDFWGQGTTVTVSS
VL: DIQMTQSPSSLSASVGDRVTITCRASQSISTYLNWYQQKPGKAPKLLIYAASNLQSGVPSRFSGSASGTDFTLTISSLQPEDFATYFCQQSYSTSFTFGPGTKVDIK
no binding (tested: 1 μg/mL): 新型冠状病毒Alpha Spike蛋白 | 新型冠状病毒Beta Spike蛋白 | 新型冠状病毒Gamma Spike蛋白

B3: 抗体 克隆号9A5D9 22G3 (antibody, V domains shown)
VH: EVQLVESGGGLVKPGGSLRLSCAASGFTFSSYSMNWVRQAPGKGLEWVSSISRSSSYIYYADSVMGRFTISRDNAKNSLYLQMNSLRADDTAVYYCARDRGSGNYYVDGLDIWGQGTMVTVSS
VL: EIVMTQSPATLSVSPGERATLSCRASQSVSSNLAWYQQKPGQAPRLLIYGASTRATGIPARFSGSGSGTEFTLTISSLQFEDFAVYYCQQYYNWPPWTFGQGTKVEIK
no binding (tested: 1 μg/mL): 新型冠状病毒Alpha Spike蛋白 | 新型冠状病毒Beta Spike蛋白 | 新型冠状病毒Gamma Spike蛋白
